Reference: patent US20140011207, “PSA BINDING APTAMER AND METHOD FOR DIAGNOSIS OF PROSTATE CANCER” (National University Corporation Tokyo University of …, published 2014)

Assays:
[1] = biological target: T1, Prostate-specific antigen (PSA, KLK3) (Homo sapiens, UniProt P07288 P07288:25-261); experiment: ELONA; rank 2 of 1st generation; details: tags: purified from human semen; Sigma-Aldrich and Scipac; label: 5'-FITC
Protocol: (§1) 100 μL amounts of PSA in PBS buffer (pH 7.4), at final concentration of 5 μg/mL, were added to a 96-well polystyrene plate. After 2 h incubation with gentle shaking at 37° C., the supernatant was removed and each well was washed with TBST buffer. Each well was filled with 100 μl of five-fold-diluted blocking reagent N102 and incubated with gentle shaking for 1 h at room temperature, and then washed three times. FITC-labeled aptamer was heat treated in TBS buffer as described above for folding. To each well 100 μL amounts of the FITC-labeled aptamer in TBST buffer (5 μM) were added and incubated for 1 h at room temperature. […] Each well was washed five times and BM chemiluminescence HRP substrate was added, then the HRP activity was measured by a multi label plate counter: Wallac 1420 ARVO MX (Perkin Elmer).
(§2) In order to carry out a post-SELEX screening of aptamers using GA with candidates, the five sequences pre-selected through SELEX were used as “parents” to produce a set of 20 oligonucleotide sequences using GA. These oligonucleotides were synthesized and the PSA-binding ability was evaluated by plate assay. The PSA-binding ability was measured by detection chemiluminescence from HRP-conjugated anti-FITC antibody that represented the binding of oligonucleotides against PSA immobilized on a well of polystyrene plate (n=2). […]

[2] = biological target: T1, Prostate-specific antigen (PSA, KLK3); experiment: ELONA; rank 5 of 1st generation; details: tags: purified from human semen; Sigma-Aldrich and Scipac; label: 5'-FITC
Protocol: as §1, §2

[3] = biological target: T1, Prostate-specific antigen (PSA, KLK3); experiment: ELONA; details: tags: purified from human semen; Sigma-Aldrich and Scipac; label: 5'-FITC
Protocol: 100 μL amounts of PSA in PBS buffer (pH 7.4), at final concentration of 5 μg/mL, were added to a 96-well polystyrene plate. After 2 h incubation with gentle shaking at 37° C., the supernatant was removed and each well was washed with TBST buffer. Each well was filled with 100 μl of five-fold-diluted blocking reagent N102 and incubated with gentle shaking for 1 h at room temperature, and then washed three times. FITC-labeled aptamer was heat treated in TBS buffer as described above for folding. To each well 100 μL amounts of the FITC-labeled aptamer in TBST buffer (5 μM) were added and incubated for 1 h at room temperature. After washing three times, HRP-conjugated anti-FITC antibody was added to each well and incubated with gentle shaking for 1 h at room temperature. Each well was washed five times and BM chemiluminescence HRP substrate was added, then the HRP activity was measured by a multi label plate counter: Wallac 1420 ARVO MX (Perkin Elmer).
In order to carry out a post-SELEX screening of aptamers using GA with candidates, the five sequences pre-selected through SELEX were used as “parents” to produce a set of 20 oligonucleotide sequences using GA. These oligonucleotides were synthesized and the PSA-binding ability was evaluated by plate assay. The PSA-binding ability was measured by detection chemiluminescence from HRP-conjugated anti-FITC antibody that represented the binding of oligonucleotides against PSA immobilized on a well of polystyrene plate (n=2). The signal intensity was normalized with that of the top oligonucleotide in the 1st-generation. Then, the oligonucleotides were ranked according to PSA-binding ability, and top four ranked sequences were chosen to produce a next set of oligonucleotide sequences. The cycle of oligonucleotide synthesis, plate assay and evolution of the oligonucleotide sequences using GA was repeated three times, with one cycle corresponding to one generation when we assume this process to be the in silico evolution of the PSA-binding aptamer. After one cycle of GA operations, four 2nd-generation sequences, SEQ ID: Nos. 8 to 11, were obtained.

[4] = biological target: T1, Prostate-specific antigen (PSA, KLK3); experiment: ELONA; PSA immobilized on polystyrene plate; TBST with 5 mM KCl, 5 mM MgCl2, pH 7.4, room temp; details: tags: purified from human semen; Sigma-Aldrich and Scipac; label: 5'-FITC; predicted stem-loop
Protocol: as §1
Plate assay for detection of PSA was performed as described above with the following modifications. […] After incubation with HRP-conjugated anti-FITC antibody, chemiluminescence from HRP was measured.
Plate assay was performed to measure PSA concentrations with ΔPSap4#5 selected using GA as the top oligonucleotide of the 4th-generation. […] Then, the PSA concentration was measured by detecting chemiluminescence from HRP-conjugated anti-FITC antibody that represented the binding of FITC-labeled ΔPSap4#5 against PSA immobilized on a well of polystyrene plate (n=2). […]

[5] = biological target: T1, Prostate-specific antigen (PSA, KLK3); experiment: ELONA; rank 7 of 1st generation; details: tags: purified from human semen; Sigma-Aldrich and Scipac; label: 5'-FITC
Protocol: as §1, §2

[6] = biological target: T1, Prostate-specific antigen (PSA, KLK3); experiment: ELONA; rank 3 of 1st generation; details: tags: purified from human semen; Sigma-Aldrich and Scipac; label: 5'-FITC
Protocol: as §1, §2

[7] = biological target: T1, Prostate-specific antigen (PSA, KLK3); experiment: ELONA; rank 4 of 1st generation; details: tags: purified from human semen; Sigma-Aldrich and Scipac; label: 5'-FITC
Protocol: as §1, §2

[8] = biological target: T1, Prostate-specific antigen (PSA, KLK3); experiment: ELONA; rank 1 of 1st generation; 1st generation up to 10-fold higher than parents; details: tags: purified from human semen; Sigma-Aldrich and Scipac; label: 5'-FITC
Protocol: as §1, §2

[9] = biological target: T1, Prostate-specific antigen (PSA, KLK3); experiment: ELONA; rank 6 of 1st generation; details: tags: purified from human semen; Sigma-Aldrich and Scipac; label: 5'-FITC
Protocol: as §1, §2

T1 sequence (P07288 25-261, one chain of several): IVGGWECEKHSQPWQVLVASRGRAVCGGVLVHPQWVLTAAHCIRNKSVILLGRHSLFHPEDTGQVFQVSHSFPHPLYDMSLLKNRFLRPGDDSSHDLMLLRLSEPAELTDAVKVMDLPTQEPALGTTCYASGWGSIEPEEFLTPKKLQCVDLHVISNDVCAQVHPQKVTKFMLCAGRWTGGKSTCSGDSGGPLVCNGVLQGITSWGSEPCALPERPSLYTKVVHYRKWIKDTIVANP

Row | Binder | binding signal [3] | other results
1 | TTTTTACTTAAGGATTTCCTTTTTTAGCCTTT (ssDNA) [ΔPSap1#3] | – | binding result [1]: binds
2 | TTTTTAATATCACCCTTGTTTACTGTCCCTTT (ssDNA) [ΔPSap1#12] | – | binding result [2]: binds
3 | TTTTTAATGTCAACGTTGTTTACTGTCCCTTT (ssDNA) [ΔPSap2#18] | 1490 CPS (normalized HRP chemiluminescence) | –
4 | TTTTTAATTAAAGCTCGCCATCAAATAGCTTT (ssDNA) [ΔPSap4#5] | – | Kd [4]: 54 nM
5 | TTTTTTATTAAGGCTCGCCATCAAATAGCTTT (ssDNA) [ΔPSap4#10] | 3300 CPS (normalized HRP chemiluminescence) | –
6 | TTTTTAATTAAGGCTCGCCATCAGATAGCTTT (ssDNA) [ΔPSap4#7] | 3260 CPS (normalized HRP chemiluminescence) | –
7 | TTTTTAATTAAGGCTCGCCATCAAAAAGCTTT (ssDNA) [ΔPSap4#19] | 1220 CPS (normalized HRP chemiluminescence) | –
8 | TTTTTAATTCAGGCTCGCCATCAAATAGCTTT (ssDNA) [ΔPSap4#1] | 1800 CPS (normalized HRP chemiluminescence) | –
9 | TTTTTAATTAAGGCTCGCCATCAAATAACTTT (ssDNA) [ΔPSap4#11] | 2150 CPS (normalized HRP chemiluminescence) | –
10 | TTTTTAATTAAGGCTCGCCATCAAAGAGCTTT (ssDNA) [ΔPSap4#14] | 2510 CPS (normalized HRP chemiluminescence) | –
11 | TTTTTAATTAAGGATTTCCCGGTTGTATCTTT (ssDNA) [ΔPSap2#02] | 1550 CPS (normalized HRP chemiluminescence) | –
12 | TTTTTACTTAATGATTTCACCGGTGGCCCTTT (ssDNA) [ΔPSap1#19] | – | binding result [5]: binds
13 | TTTTTACTGTGAACTCGCCATCAAATATCTTT (ssDNA) [ΔPSap2#16] | 1480 CPS (normalized HRP chemiluminescence) | –
14 | TTTTTAATGTCAACTCGCCATCAAATATCTTT (ssDNA) [ΔPSap1#16] | – | binding result [6]: binds
15 | TTTTTCCTCACCGGGTAACTTCGTGGCCCTTT (ssDNA) [ΔPSap1#5] | – | binding result [7]: binds
16 | TTTTTGCCTACTGATTTCCTTTTTGAGCCTTT (ssDNA) [ΔPSap2#01] | 1170 CPS (normalized HRP chemiluminescence) | –
17 | TTTTTAATATCAACTTGCCATAAAGGGCCTTT (ssDNA) [ΔPSap1#13] | – | binding result [8]: binds
18 | TTTTTGCCTAATGATTTCCCGGTTGTCTCTTT (ssDNA) [ΔPSap1#15] | – | binding result [9]: binds
